# T1: ICE1FL-myc (Arabidopsis thaliana, UniProt Q9LSE2 1-494)
# T1 sequence (looked up): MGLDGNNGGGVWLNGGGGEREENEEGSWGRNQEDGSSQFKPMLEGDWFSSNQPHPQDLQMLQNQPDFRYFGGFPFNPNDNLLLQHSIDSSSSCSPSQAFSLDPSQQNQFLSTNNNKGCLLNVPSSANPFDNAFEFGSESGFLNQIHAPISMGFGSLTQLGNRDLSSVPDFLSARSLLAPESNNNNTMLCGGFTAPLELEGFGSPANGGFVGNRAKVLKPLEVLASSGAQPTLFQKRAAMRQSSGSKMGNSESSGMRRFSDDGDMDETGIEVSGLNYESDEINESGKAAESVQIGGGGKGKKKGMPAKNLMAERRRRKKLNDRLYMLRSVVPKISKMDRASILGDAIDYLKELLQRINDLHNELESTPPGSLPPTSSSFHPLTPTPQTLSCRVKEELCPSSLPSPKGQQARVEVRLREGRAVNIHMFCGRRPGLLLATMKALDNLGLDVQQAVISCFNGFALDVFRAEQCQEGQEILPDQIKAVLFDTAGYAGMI
# B1: AIF2FL-nYFP (natural protein, Arabidopsis thaliana, UniProt Q9C8Z9 1-221, looked up)
# chain: MASLISDIEPPTSTTSDLVRRKKRSSASSAASSRSSASSVSGEIHARWRSEKQQRIYSAKLFQALQQVRLNSSASTSSSPTAQKRGKAVREAADRALAVSARGRTLWSRAILANRIKLKFRKQRRPRATMAIPAMTTVVSSSSNRSRKRRVSVLRLNKKSIPDVNRKVRVLGRLVPGCGKQSVPVILEEATDYIQALEMQVRAMNSLVQLLSSYGSAPPPI
# Target: T1, ICE1FL-myc
# Assay: cell-based or functional assay
binder,measurement,value
B1,"pCBF2::Luc reporter expression in tobacco leaves on co-expression of full-length AIF2 (p35S::AIF2FL-EGFP) and ICE1 (p35S::ICE1FL-EGFP), against the non-transformed mock control",~5 fold

# Source: publication PMC7031079, “ATBS1-INTERACTING FACTOR 2 negatively regulates dark- and brassinosteroid-induced leaf senescence through interactions with INDUCER OF CBF EXPRESSION 1” (Journal of Experimental Botany, 2019)
